Consider one protein from publication PMC12051055, “Spectroscopy and crystallography define carotenoid oxygenases as a new subclass of mononuclear non-heme Fe^II enzymes” (The Journal of Biological Chemistry, 2025).

Substrate in the series: CC=Cc1ccc(O)c(OC)c1
In words: steady-state kinetics of cleavage to vanillin by purified enzyme (apparent Km). The series is classed as biochemical, Neurospora crassa. Conditions: Fe(II). The source says:
steady-state kinetics of cleavage to vanillin by purified enzyme (apparent Km) on CAO1 (Neurospora crassa carotenoid oxygenase 1) | wildtype and T151V steady-state kinetics toward isoeugenol

B1: CAO1 (Neurospora crassa carotenoid oxygenase 1) (Neurospora crassa OR74A) (protein)
chain: MAEYVFSDAPKDSHGNGVKDAVPGKQPEELPPAPRYFQGENTAGFMRPVRFEGDITNLEVVGEIPKSIEGTFYRVMPEPHLPSFIPNDPWFNGDGNISGFYFKDGHVDLKQRYVRTEKFVREAEARRSLLGKYRNRYTDLVEFKIRSTANTNIVYWRGQLLALKEDSPPYAMDPETLETFGVYDFDGQLPSLTFTAHPKFDPVTREMVCFGYEAKGDGTRDICYYSFGPDGKIAETVWLVSPVCGMIHDFAVTENFVIFPIIPLVCDVERMKQGGDHWQWDYSIPMYIGVLPRRGAQGSDVKWFEAPHGFAGHVANAFEDDKGHIQLQMAYAKDNVFFWWPDANGKGPRPGEVEAHFANFVLDYQSDKLPLAEPTYLVDDDMEFPRIDDRVATRKHKHTFFCIFDRKPGVTDFEFVMPRAGGGAPMSNGLAHLNHETGDIQRYLPGPRKLTGECIFIPRNSEAAEGDGYVMVLLANYEDMCSELAVLDTKDLTNEVALIKLPVRLRPGLHGNWVDKSDVDGHPAPL
For the protein B1, the Km came out at 86.26 ± 13.49 µM.
